In assay [1] the target is 人BCMA(hBCMA)蛋白 (human) (UniProt Q02223). Nature of the assay: phage ELISA, 0.5 μg/ml hBCMA coated, phage supernatant, anti-M13-HRP. For orientation: In an ELISA, binding on a coated surface is turned into a signal by an enzyme label.
For assay [2], the target named is biotin-BCMA抗原 (human) (UniProt Q02223). Nature of the assay: flow cytometry, T cells 72 h after infection, 0.2 μg/ml biotin-BCMA, APC-Streptavidin. In general terms: Flow cytometry measures light scatter and fluorescence of single cells or particles in a stream.
In assay [3] the target is T1, BCMA on BCMA+ target cells (NCI-H929; K562-BCMA) (human, UniProt Q02223 1-184).
T1 sequence (looked up): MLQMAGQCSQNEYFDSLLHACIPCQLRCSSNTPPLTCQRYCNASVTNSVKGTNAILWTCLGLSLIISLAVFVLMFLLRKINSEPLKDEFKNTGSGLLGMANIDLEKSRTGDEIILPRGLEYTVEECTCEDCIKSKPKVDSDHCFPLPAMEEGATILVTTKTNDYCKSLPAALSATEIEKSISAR
Nature of the assay: cell-based or functional assay.

B1: 抗BCMA单链抗体2(命名为抗体2077) (scFv, V domains shown)
VH: QVQLQQSGPGLVKPSQTLSLTCAISGDSVSSNSAAWNWIRQSPSRGLEWLGRTYYRSKWYNDYAVSVKSRITINPDTSKNQFSLQLNSVTPEDTAVYYCARLAYEVRSTDWYFDLWGRGTLVTVSS
VL: QPVLTQPPSVSEAPRQRVTISCSGSSSNIGNNAVNWYQQLPGKAPKLLIYYDDLLPSGVSDRFSGSKSGTSASLAISGLQSEDEADYYCAAWDDSLNGWVFGGGTKLTVL
As to B1, the OD450 in assay [1] is > 1.5 OD450.

B2: 抗BCMA单链抗体4(命名为抗体2082) (scFv, V domains shown)
VH: QVQLQQSGPALVKPSQTLSLTCVISGDSVSSNSASWTWIRQSPSRGLEWLGRTYRRADRWYYDYALSLNSRLTINPDTSKNHFALHLTSVTPEDTAVYYCSREYWGGSFDVWGQGTTVTVSS
VL: QPVLTQPASVSGSPGQSITISCTGTSSDVGGYDYVSWYQQHPGKAPKLMLYEVNNRPSGVSNRFSGSKSGNTASLTISGLQAEDEGAYYCSSYTSSNTHVVFGGGTQLTVL
As to B2, the OD450 in assay [1] is > 1.5 OD450.

B3: 2073嵌合抗原受体 (CAR-BCMA-2073, on T cells CAR-BCMA-2073-T) (other)
chain: DIVMTQSPDSLAVSLGERATINCKSSQNVLYSSNNRNYLAWYQQKPGQPPKLLIYWASTRESGVPDRFSGSGSGTDFTLTISSLQAEDVAVYYCQQYYGSVVTFGGGTKVEIKGSTSGSGKPGSGEGSTKGQVQLQQSGPGLVKPSQTLSLTCAISGDSVSSNSAAWNWIRQSPSRGLEWLGRTYYRSKWYNDYALSVKSRITINPDTSKNQFSLQLNSVTPEDTAVYYCARGASSFDYWGQGTLVTVSSTTTPAPRPPTPAPTIASQPLSLRPEACRPAAGGAVHTRGLDFACDIYIWAPLAGTCGVLLLSLVITLYCKRGRKKLLYIFKQPFMRPVQTTQEEDGCSCRFPEEEEGGCELRVKFSRSADAPAYKQGQNQLYNELNLGRREEYDVLDKRRGRDPEMGGKPRRKNPQEGLYNELQKDKMAEAYSEIGMKGERRRGKGHDGLYQGLSTATKDTYDALHMQALPPR
As for B3, in assay [2], the CAR-BCMA阳性率 (percent of T cells stained by biotin-BCMA) stood at 45.1%. In addition, in assay [3], the “proportion of target cells K562-BCMA in total cells, co-culture E:T 7:1, 0 h” value came out at 8.69%; the “proportion of target cells K562-BCMA in total cells, co-culture E:T 7:1, 48 h” value was determined as 6.1%; the “proportion of target cells NCI-H929 in total cells, co-culture E:T 5:1, end” value stood at 0.435%; the “proportion of target cells NCI-H929 in total cells, co-culture E:T 5:1, start” value is 15.4%.

B4: 2079嵌合抗原受体 (CAR-BCMA-2079, on T cells CAR-BCMA-2079-T) (other)
chain: QSALTQPASVSGSPGQSITMSCTGTSSDVGGYKYVSWYQQHPGKAPQLMIHDVRERPSGVSNRFSGSKSGNTASLTISGLQAEDEADYYCSSFTNNSTFVFGTGTKVTVLGSTSGSGKPGSGEGSTKGQVQLQQSGPGLVKPSQTLSLTCAISGDSVSSNSAAWNWIRQSPSRGLEWLGRTYYRSTWYNDYAVSVKSRITINPDTSKNQFSLQLNSVTPEDTAVYYCARGTGTLDYWGQGTLVTVSSTTTPAPRPPTPAPTIASQPLSLRPEACRPAAGGAVHTRGLDFACDIYIWAPLAGTCGVLLLSLVITLYCKRGRKKLLYIFKQPFMRPVQTTQEEDGCSCRFPEEEEGGCELRVKFSRSADAPAYKQGQNQLYNELNLGRREEYDVLDKRRGRDPEMGGKPRRKNPQEGLYNELQKDKMAEAYSEIGMKGERRRGKGHDGLYQGLSTATKDTYDALHMQALPPR
As to B4, the CAR-BCMA阳性率 (percent of T cells stained by biotin-BCMA) in assay [2] came out at 22.3%. In assay [3], the “proportion of target cells K562-BCMA in total cells, co-culture E:T 7:1, 0 h” value was 9.28%; the “proportion of target cells K562-BCMA in total cells, co-culture E:T 7:1, 48 h” value was determined as 8.69%; the “proportion of target cells NCI-H929 in total cells, co-culture E:T 5:1, end” value was found to be 6.63%; the “proportion of target cells NCI-H929 in total cells, co-culture E:T 5:1, start” value turned out to be 11.3%.

B5: 抗BCMA单链抗体3(命名为抗体2079) (scFv, V domains shown)
VH: QVQLQQSGPGLVKPSQTLSLTCAISGDSVSSNSAAWNWIRQSPSRGLEWLGRTYYRSTWYNDYAVSVKSRITINPDTSKNQFSLQLNSVTPEDTAVYYCARGTGTLDYWGQGTLVTVSS
VL: QSALTQPASVSGSPGQSITMSCTGTSSDVGGYKYVSWYQQHPGKAPQLMIHDVRERPSGVSNRFSGSKSGNTASLTISGLQAEDEADYYCSSFTNNSTFVFGTGTKVTVL
Consider B5, for which the OD450 in assay [1] was > 1.5 OD450.

Source of the values: patent CN112125974A (BIORAY LABORATORIES INC, dated 2020).
